The record followed here is PMC5507636 (Science Advances, 2017).

This test addresses Streptococcus pyogenes Cas9 (Streptococcus pyogenes, UniProt Q99ZW2). The test is described as follows: cryo-EM structure.

Usually stoichiometry N stands for a count of units in the complex or per binding partner.

Sequence of Streptococcus pyogenes Cas9 (Q99ZW2 whole entry): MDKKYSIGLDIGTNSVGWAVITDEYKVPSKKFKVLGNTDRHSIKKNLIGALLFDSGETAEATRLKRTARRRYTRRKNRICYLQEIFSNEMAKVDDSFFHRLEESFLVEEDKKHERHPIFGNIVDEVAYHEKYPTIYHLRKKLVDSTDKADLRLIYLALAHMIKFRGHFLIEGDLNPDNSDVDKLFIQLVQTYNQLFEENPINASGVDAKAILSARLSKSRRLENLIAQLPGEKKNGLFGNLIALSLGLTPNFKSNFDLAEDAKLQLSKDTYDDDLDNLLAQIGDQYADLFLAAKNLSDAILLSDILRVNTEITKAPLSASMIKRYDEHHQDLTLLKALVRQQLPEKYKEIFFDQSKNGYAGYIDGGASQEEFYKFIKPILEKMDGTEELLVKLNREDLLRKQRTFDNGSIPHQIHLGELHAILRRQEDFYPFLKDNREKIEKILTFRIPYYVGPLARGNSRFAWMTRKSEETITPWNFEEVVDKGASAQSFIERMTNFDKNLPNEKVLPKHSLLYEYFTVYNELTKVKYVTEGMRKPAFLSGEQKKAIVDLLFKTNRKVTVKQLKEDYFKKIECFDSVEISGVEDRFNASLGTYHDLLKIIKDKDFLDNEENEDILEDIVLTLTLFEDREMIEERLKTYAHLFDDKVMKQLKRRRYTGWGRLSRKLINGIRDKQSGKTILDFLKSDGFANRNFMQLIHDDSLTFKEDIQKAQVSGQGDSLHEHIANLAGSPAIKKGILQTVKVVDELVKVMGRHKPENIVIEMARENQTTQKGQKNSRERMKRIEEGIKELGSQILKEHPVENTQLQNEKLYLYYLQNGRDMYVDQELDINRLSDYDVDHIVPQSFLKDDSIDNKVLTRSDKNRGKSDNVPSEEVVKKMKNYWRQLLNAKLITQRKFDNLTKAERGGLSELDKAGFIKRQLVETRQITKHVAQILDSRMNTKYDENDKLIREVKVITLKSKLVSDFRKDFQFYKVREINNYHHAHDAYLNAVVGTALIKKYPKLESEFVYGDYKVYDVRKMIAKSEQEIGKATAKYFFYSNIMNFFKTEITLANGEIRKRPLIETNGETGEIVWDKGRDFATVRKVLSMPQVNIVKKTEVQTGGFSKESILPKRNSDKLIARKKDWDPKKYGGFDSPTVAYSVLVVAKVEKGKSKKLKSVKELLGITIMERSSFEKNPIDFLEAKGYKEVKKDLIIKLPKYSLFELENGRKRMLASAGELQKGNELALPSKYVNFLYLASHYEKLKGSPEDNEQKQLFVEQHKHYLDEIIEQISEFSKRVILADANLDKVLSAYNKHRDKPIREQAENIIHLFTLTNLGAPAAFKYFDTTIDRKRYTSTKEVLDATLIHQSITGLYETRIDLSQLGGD

B1: anti-CRISPR protein AcrIIA4 (natural protein)
chain: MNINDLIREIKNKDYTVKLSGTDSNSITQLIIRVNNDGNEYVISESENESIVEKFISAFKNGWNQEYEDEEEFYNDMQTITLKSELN
Regarding B1, the “stoichiometry N” value amounted to 1.
